For series [1], the target named is T1, CcpA (catabolite control protein A) (Staphylococcus aureus XN108 (clinical isolate)?) (UniProt P99175).
T1 sequence: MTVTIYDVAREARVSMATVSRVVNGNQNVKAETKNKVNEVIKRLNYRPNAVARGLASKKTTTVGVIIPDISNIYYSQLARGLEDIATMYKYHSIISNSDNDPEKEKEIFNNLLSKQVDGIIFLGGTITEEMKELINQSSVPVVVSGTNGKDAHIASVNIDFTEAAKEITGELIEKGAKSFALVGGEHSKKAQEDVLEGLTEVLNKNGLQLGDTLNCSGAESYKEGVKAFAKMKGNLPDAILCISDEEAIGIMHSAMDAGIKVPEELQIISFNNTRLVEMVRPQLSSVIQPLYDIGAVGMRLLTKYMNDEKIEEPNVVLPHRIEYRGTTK
Description: EMSA. (Mobility shift assays separate free from complexed probe on a gel.)

Series [2] concerns the target T1, CcpA (catabolite control protein A) (Staphylococcus aureus XN108 (clinical isolate)?). In words: competition.

Regarding “GGCGCTTCCTCCAAATATAATATATTTGTTTTTATTTATCTCTTTTTATAGCTAACACCCTTATTTAAGATGATAAATATCAACAACTTCATTTTATATTGAGAAAATATTAAAAATCAATAAAATATTAAAAGAAACTAAACTTACATTAAAAAATAATTAACAAATATTTAACATTTTAACCTAAGAA (double strand) [Psak]”, the binding result in series [1] and in series [2] was “binds” throughout.

The record behind these values is article PMC9598941.
